Here are results for one molecule from patent US6680174.

This experiment deals with mouse GDF-9 receptor on granulosa cells (mouse). The experiment can be described thus: cell-based or functional assay.

B1: recombinant mouse GDF-9, cleaved, mature, glycosylated form (21 kD) (ligand, UniProt Q07105 307-441, looked up)
chain: GQKAIRSEAKGPLLTASFNLSEYFKQFLFPQNECELHDFRLSFSQLKWDNWIVAPHRYNPRYCKGDCPRAVRHRYGSPVHTMVQNIIYEKLDPSVPRPSCVPGKYSPLSVLTIEPDGSIAYKEYEDMIATRCTCR
modifications: one N-linked oligosaccharide (single N-linked glycosylation site, Asn325)
As for B1, the COX-2 mRNA (RT-PCR) after 24 hours with 100 ng/ml GDF-9 is 50 fold; the HAS2 expression (RT-PCR) after 5 hours, 50 ng/ml and 100 ng/ml mGDF-9 against 10 ng/ml fell in the range of 5 to 10 fold; the HAS2 expression (RT-PCR), granulosa cells cultured ~20 hrs with mGDF-9 media, against CHO control amounted to 10 fold; the HAS2 mRNA (Northern blot, 4.8 kb and 3.2 kb forms) after 5 hours with 50 ng/ml GDF-9 is 9.7 fold. The LH receptor mRNA (RT-PCR) with 10 ng/ml FSH, control-treated against cells treated with 100 ng/ml GDF-9 amounted to 30 fold; the cumulus expansion of oocytectomized complexes cultured 18 hours with 100 ng/ml GDF-9 (out of 44 complexes) was determined as 40; the fold decrease in HAS2 expression without GDF-9 (0-24 hours) against the peak level induced by 100 ng/ml GDF-9 was determined as 10 fold; the uPA RT-PCR band intensity at 5 hours, 100 ng/ml GDF-9, normalized to HPRT is 15 % of control. The uPA RT-PCR band intensity at 9 hours, 100 ng/ml GDF-9, normalized to HPRT was 9 % of control and the uPA mRNA (Northern blot) with 50 ng/ml GDF-9 is 40 % of control.
